Experimental data taken from US7888116B2, “Uses of notch receptors, notch ligands, and notch modulators in methods related to metabolic diseases” (The United States of America as represented by the …, priority 2005, dated 2011).

Test system: Notch-1 (NICD)
Experiment: NICD nuclear translocation in RIN cells (indirect immunofluorescence, immunoblot of nuclear extracts)
Type: cell-based, rat
Settings: RIN cells treated with secretagogues
Protocol: Islet isolation, cell culture and treatments. Adult rat (Sprague-Dawley) and mouse (C57/BL6) islets were isolated by collagenase P digestion and cultured overnight in M199 medium (5 mM glucose). RIN 1046-38 β-cells were cultured as outlined previously (Wang, et al., Endocrinology, 142:1820-1827 (2001)). Isolated human islets came from David Harlan, Transplant Section, NIDDK. Ex-4, GLP-1, CCK (all used at concentrations previously shown to cause maximum insulin release), Ex and the γ-secretase inhibitor, L-685,458, were obtained from Bachem. H89 was from Calbiochem, insulin was from Sigma. The Jagged peptides, R-JAG […] (SEQ ID NO:1), JAG-1 […] (SEQ ID NO:2), and scrambled control peptide without agonist activity, sc-Jagged […] (Nickoloff, et al., Cell Death Differ, 9842-855 (2002)) (SEQ ID NO:3), were synthesised by New England Peptide Inc. […]
RIN cells were permeabilized in Triton-X (0.1%) on ice and blocked for 1 h at room temperature in 3% BSA and 0.1% Tween in PBS. They were incubated overnight at 4° C. with the primary antibody, washed in PBS and incubated with fluorescent labelled secondary antibody for 1 h, washed and mounted with fluorescence mounting medium (Vector Laboratories). […] AlexaFluor antibodies (Molecular Probes; Eugene, Oreg.) were excited with the 488-nm line of a krypton-argon laser and recorded at the presence of emission filter BP515-565 nm. […]

B1: Cholecystokinin (peptide, UniProt P06307 21-115, looked up)
Cholecystokinin: QPVPPADPAGSGLQRAEEAPRRQLRVSQRTDGESRAHLGALLARYIQQARKAPSGRMSIVKNLQNLDPSHRISDRDYMGWMDFGRRSAEEYEYPS
modifications: Cholecystokinin
notes: increases insulin secretion in a non-cAMP dependent manner
Question: B1 was tested. Which “nuclear NICD / NICD translocation” value did it give?
Answer: did not increase NICD translocation above that seen with glucose alone
